Assay results as given in US20220107306A1.

Columns and labels:
[1] = biological target: Recombinant human HER2 protein (E27-11G-10/Signal Chem) (human) (UniProt P04626); assay: sandwich ELISA: HER2 captured by antibody 6C2, detected with 0.67 nM antibody-coated PID-T particles, before lyophilizing
[2] = biological target: Recombinant human HER2 protein (E27-11G-10/Signal Chem) (human) (UniProt P04626); assay: sandwich ELISA: HER2 captured by antibody 6C2, detected with 0.67 nM antibody-coated PID-T particles, after lyophilizing
[3] = test system: rabbit IgG (anti-PD-L1 rabbit monoclonal antibody clone SP142) (Oryctolagus cuniculus); conditions: 5' SH (reduced disulfide), coupled to maleimide-PEG nanoparticle; secondary staining of SP142 rabbit mAb on NCI-H446 section; 0.05 nM aptamer-nanoparticle, PBS 1% BSA, RT 3 h
[4] = biological target: Recombinant human PDL1 protein (BioVision/7429-50) (human) (UniProt Q9NZQ7); assay: sandwich ELISA: PDL1 captured by antibody 28-8, detected with antibody-coated PID particles, before lyophilizing
Chain of UniProt Q9NZQ7 (Q9NZQ7 19-238 limits assumed): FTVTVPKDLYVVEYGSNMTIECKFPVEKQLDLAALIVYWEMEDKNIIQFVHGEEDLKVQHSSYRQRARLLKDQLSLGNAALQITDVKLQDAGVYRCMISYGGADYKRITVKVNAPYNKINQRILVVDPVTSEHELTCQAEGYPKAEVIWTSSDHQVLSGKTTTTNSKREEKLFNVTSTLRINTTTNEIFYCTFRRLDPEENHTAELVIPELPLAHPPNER

[5] = biological target: Recombinant human PDL1 protein (BioVision/7429-50) (human) (UniProt Q9NZQ7); assay: sandwich ELISA: PDL1 captured by antibody 28-8, detected with antibody-coated PID particles, after lyophilizing

Fluorescence intensity (PFU), before lyophilizing [1] [PFU]	Fluorescence intensity (PFU), after lyophilizing [2] [PFU]	Fluorescence intensity (PFU), before lyophilizing [4] [PFU]	Fluorescence intensity (PFU), after lyophilizing [5] [PFU]	Molecule	binding (bright spots per cell) [3]
41000	18000			anti-HER2-Fab antibody prepared from the anti-HER2-whole antibody (Abcam EP1045Y), bound to the surface of PID-T	
				GGGAGAAUUCCGACCAGAAGUUCGAUACGCCGUGGGGUGACGUUGGCUACCCUUUCCUCUCUCCUCCUUCUUCU [rabbit IgG RNA aptamer (74 mer)]	605
		17000	5500	anti-PDL1-recombinant antibody (clone E1L3N/Cell Signaling Technology), bound to the surface of PID-P	
33000	15000			anti-HER2-whole antibody (Abcam, product code EP1045Y), bound to the surface of PID-T	
51000	49000			anti-HER2-VHH antibody (SH group-containing VHH antibody that recognizes HER2 antigen), bound to the surface of PID-T (VHH, C-terminal cysteine of the linker reduced with DTT to a free SH group and coupled to the maleimide group of TAMRA-encapsulating silica nanoparticles (PID-T)) VHH: EVQLVESGGGLVQAGGSLRLSCAASGITFSINTMGWYRQAPGKQRELVALISSIGDTYYADSVKGRFTISRDNAKNTVYLQMNSLKPEDTAVYYCKRFRTAQGTDYWGQGTQVTVSS	
